Where a SMILES comes first, the peptide text is derived from it. Primed or numbered codes have the meaning given here. [ ]: non-standard residue; d: D form. The star is where a group is joined. ξ: configuration not given here. Doxorubicin(3'-N) = COc1cccc2c1C(=O)c1c(O)c3c(c(O)c1C2=O)C[C@@](O)(C(=O)CO)C[C@@H]3O[C@H]1C[C@H](N*)[C@H](O)[C@H](C)O1; PEG(2) = polyethylene glycol-containing substituent with two ethyleneoxy subunits; Hyp = O=C(O)[C@@H]1C[C@@H](O)CN1; ξtBuAla = CC(C)(C)CC(N)C(=O)O; Chg = N[C@H](C(=O)O)C1CCCCC1; ξHyp = O=C(O)C1CC(O)CN1
Legend:
DuPRO cells = assay: In vitro cytotoxicity of peptidyl derivatives of doxorubicin, Alamar Blue assay, DuPRO; type: cell-based; settings: 72 HRS, read-out: DuPRO Cell Kill in 72 HRS EC 50
Protocol: (§1) The cytotoxicities of the cleaveable oligopeptide-doxorubicin conjugates, prepared as described in Examples 3 and 4, against a line of cells which is known to be killed by unmodified doxorubicin were assessed with an Alamar Blue assay. Specifically, cell cultures of LNCap prostate tumor cells (which express enzymatically active PSA) or DuPRO cells in 96 well plates was diluted with medium (Dulbeco's Minimum Essential Medium-α [MEM-α]) containing various concentrations of a given conjugate (final plate well volume of 200 μl). The cells were incubated for 3 days at 37° C., 20 μl of Alamar Blue is added to the assay well. The cells were further incubated and the assay plates were read on a EL-310 ELISA reader at the dual wavelengths of 570 and 600 nm at 4 and 7 hours after addition of Alamar Blue. Relative percentage viability at the various concentration of conjugate tested was then calculated versus control (no conjugate) cultures. If no salt is indicated, the free conjugate was tested.

[1] = test system: LNCap prostate tumor cells (which express enzymatically active PSA); assay: In vitro cytotoxicity of peptidyl derivatives of doxorubicin, Alamar Blue assay, LNCaP; type: cell-based; settings: 72 HRS, read-out: LNCaP Cell Kill in 72 HRS EC 50
Protocol: as §1

[2] = molecular target: T1, enzymatically active free PSA (Homo sapiens, UniProt P07288); assay: Recognition of oligopeptide-doxorubicin conjugates by free PSA (HPLC cleavage assay); type: biochemical; settings: for Time to 50% Substrate Cleavage by PSA: conjugate added to PSA at molar ratio 100 to 1, PSA digestion buffer
T1 construct: required for 50% cleavage of the noted oligopeptides with enzymatically active free PSA
T1 sequence (P07288 25-261): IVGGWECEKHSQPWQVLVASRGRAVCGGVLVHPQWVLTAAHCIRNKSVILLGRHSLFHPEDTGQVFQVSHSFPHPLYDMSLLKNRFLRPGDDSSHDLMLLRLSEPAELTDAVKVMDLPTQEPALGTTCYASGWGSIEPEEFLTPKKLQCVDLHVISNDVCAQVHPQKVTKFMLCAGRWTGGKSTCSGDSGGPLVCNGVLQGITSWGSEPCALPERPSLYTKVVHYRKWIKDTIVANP
Protocol: The conjugates prepared as described in Examples 3-5 were individually dissolved in PSA digestion buffer (12 mM tris(hydroxymethyl)-aminomethane pH8.0, 25 mM NaCl, 0.5 mm CaCl2) and the solution added to PSA at a molar ration of 100 to 1. Alternatively, the PSA digestion buffer utilized is 50 mM tris(hydroxymethyl)-aminomethane pH7.4, 140 mM NaCl. The reaction is quenched after various reaction times by the addition of trifluoroacetic acid (TFA) to a final 1% (volume/volume). Alternatively the reaction is quenched with 10 mm ZnCl2. The quenched reaction was analyzed by HPLC on a reversed-phase C18 column using an aqueous 0.1% TFA/acetonitrile gradient. […] If no salt is indicated for the conjugate, the free conjugate was tested. The oligopeptide-cytotoxic agent conjugates described in Examples 4 and 5 were assessed for the amount of time (in minutes) required for 50% cleavage of the oligopeptide with enzymatically active free PSA and 50% cleavage occurred in less than 2 hours for those conjugates.

[3] = molecular target: T1, enzymatically active free PSA; assay: Recognition of oligopeptides by free PSA (HPLC cleavage assay); type: biochemical; settings: for Substrate cleavage by PSA at 3 HOURS: oligopeptide added to PSA at molar ratio 100 to 1; for Time to 50% Substrate Cleavage by PSA: oligopeptide added to PSA at molar ratio 100 to 1, PSA digestion buffer
Protocol: The oligopeptides prepared as described in Example 1 were individually dissolved in PSA digestion buffer (12 mM tris(hydroxymethyl)-aminomethane pH8.0, 25 mM NaCl, 0.5 mM CaCl2) and the solution added to PSA at a molar ration of 100 to 1. Alternatively, the PSA digestion buffer utilized is 50 mM tris(hydroxymethyl)-aminomethane pH7.4, 140 mM NaCl. The reaction is quenched after various reaction times by the addition of trifluoroacetic acid (TFA) to a final 1% (volume/volume). Alternatively the reaction is quenched with 10 mM ZnCl2. The quenched reaction was analyzed by HPLC on a reversed-phased C18 column using an aqueous 0.1% TFA/acetonitrile gradient. […] Oligopeptides containing free amine moieties (ie. comprising hArg, Orn, Lys and or 3PAL) were tested as TFA salts. All other oligopeptides were tested as neutral compounds.

## COc1cccc2c1C(=O)c1c(O)c3c(c(O)c1C2=O)C[C@@](O)(C(=O)CO)C[C@@H]3O[C@H]1C[C@H](NC(=O)C(CC(C)(C)C)NC(=O)[C@H](CO)NC(=O)[C@H](CCC(N)=O)NC(=O)[C@@H](NC(=O)[C@H](CO)NC(=O)[C@H](C)NC(=O)C2CC(O)CN2C(C)=O)C2CCCCC2)[C@H](O)[C@H](C)O1 (stereo partly shown) (Ac-[ξHyp]AS[Chg]QS[ξtBuAla]-{Doxorubicin(3'-N)})
DuPRO cells
  EC50: > 100 µM
[1]
  EC50: 100 µM
[2]
  Time to 50% Substrate Cleavage by PSA: 25 min

## COc1cccc2c1C(=O)c1c(O)c3c(c(O)c1C2=O)C[C@@](O)(C(=O)CO)C[C@@H]3O[C@H]1C[C@H](NC(=O)[C@H](CC(C)C)NC(=O)[C@H](CO)NC(=O)[C@H](CCC(N)=O)NC(=O)[C@@H](NC(=O)[C@H](CO)NC(=O)[C@H](C)NC(=O)[C@@H]2C[C@@H](O)CN2C(C)=O)C2CCCCC2)[C@H](O)[C@H](C)O1 [Ac-(4-trans-L-Hyp)ASChgQ-SL-DOX (3′), [N-Ac-(4-trans-L-Hyp)]-Ala-Ser-Chg-Gln-Ser-Leu-Dox] (Ac-[Hyp]AS[Chg]QSL-{Doxorubicin(3'-N)})
DuPRO cells
  EC50: 90 µM
[1]
  EC50: 4.5 µM
[2]
  Time to 50% Substrate Cleavage by PSA: 20 min

## Ac-(4-trans-L-Hyp)ASChgQ-SThi-DOX (3′)
[2]
  Solubility noted in the column Time to 50% Substrate Cleavage by PSA: INSOLUBLE

## Ac-(4-trans-L-Hyp)ChgQ-SSSL-acid
[3]
  Substrate cleavage by PSA at 3 HOURS: 3 HOURS = 0% n = 2

## Ac-(Dehydro-Pro)-ASChgQ-SL-acid
[3]
  Substrate cleavage by PSA at 3 HOURS: 3 HOURS = 28%

## Ac-PASChgQ-SL-acid (Ac-PAS[Chg]QSL-OH)
[3]
  Time to 50% Substrate Cleavage by PSA: 150 min

## Ac-PSSChgQ-SV-acid
[3]
  Time to 50% Substrate Cleavage by PSA: 120 min

## PEG(2)-(4-trans-L-Hyp)ASChgQ-SL-acid ({PEG(2)}-[Hyp]AS[Chg]QSL-OH)
[3]
  Substrate cleavage by PSA at 3 HOURS: 3 HOURS = 44%

## [N-Ac-(4-trans-L-Hyp)]-Ala-Ser-Chg-Gln-Ser-Leu-OH (Ac-[Hyp]AS[Chg]QSL-OH) [Ac-(4-trans-L-Hyp)ASChgQ-SL-acid]
[3]
  Time to 50% Substrate Cleavage by PSA: 75 min
